Experimental data from patent US20250043302A1, “MUTATED HYDROXYPHENYLPYRUVATE DIOXYGENASE POLYPEPTIDE, AND CODING GENE AND USE THEREOF” (BEIJING DABEINONG BIOTECHNOLOGY CO., LTD., priority 2021, published 2025).

Experiments:
[1] = test system: Arabidopsis thaliana T1 plants; test: Isoxaflutole tolerance of transgenic Arabidopsis thaliana T1 plants (spray, bleached leaf area grade, damage score); type: in vivo; conditions: for Classification and statistics of the grade of pesticide damage: Grade 0 / Classification and statistics of the grade of pesticide damage: Grade 1 / Classification and statistics of the grade of pesticide damage: Grade 2 / Classification and statistics of the grade of pesticide damage: Grade 3: number of plants;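 as to Scores: Weighted damage index from 0 to 100 where higher means more damage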
In short: (§1)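 Damage was assessed by bleaching grade (0 none; 1 <50%; 2 >50%; 3 100% of leaf area) one week after spraying. Sprays on 18-day-old T1 and wild-type plants used field-rate multiples: topramezone 25–200, isoxaflutole 35–280, mesotrione 52.5–420 g ai/ha.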

[2] = test system: Arabidopsis thaliana T1 plants; test: Mesotrione tolerance of transgenic Arabidopsis thaliana T1 plants (spray, bleached leaf area grade, damage score); type: in vivo; parameters: Scores: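 damage score 0-100 computed as Σ(N×S)/(T×M)×100 over grades 0-3 with higher meaning more damage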; conditions: for Resistance evaluation / Classification and statistics of the grade of pesticide damage: Grade 0 / Classification and statistics of the grade of pesticide damage: Grade 1 / Classification and statistics of the grade of pesticide damage: Grade 2 / Classification and statistics of the grade of pesticide damage: Grade 3 / Scores: 7 DAT, Table 3; for Classification and statistics of the grade of pesticide damage: Grade 0 / Classification and statistics of the grade of pesticide damage: Grade 1 / Classification and statistics of the grade of pesticide damage: Grade 2 / Classification and statistics of the grade of pesticide damage: Grade 3: number of plants; for Scores: pesticide damage score 0-100
In short: as §1

[3] = isoxaflutole 280 g ai/ha (4x field concentration), Arabidopsis thaliana T1 plants
[4] = isoxaflutole 280 g ai/ha (4x field concentration), Arabidopsis thaliana T1 plants, 16 plants
[5] = isoxaflutole 280 g ai/ha (4×), 7 DAT, Table 2
[6] = isoxaflutole 140 g ai/ha (2×), 7 DAT, Table 2
[7] = mesotrione 210 g ai/ha (two-fold field concentration)

B1: AsHPPDm-F383W-02: nucleotide sequence encoding Avena sativa HPPD with F383W; vector DBN11729 (nucleic acid)
DNA: ATGCCACCTACTCCAGCTACAGCTACTGGTGCTGCTGCTGCTGCCGTTACTCCTGAGCACGCTGCCAGGTCATTCCCCAGGGTGGTTCGCGTGAACCCCAGATCTGATAGGTTCCCAGTTCTGAGCTTCCACCATGTTGAGCTGTGGTGCGCTGATGCTGCTTCTGCTGCTGGCAGGTTCTCTTTCGCTCTTGGTGCTCCACTCGCTGCTAGATCTGATCTGTCTACAGGAAATAGCGCTCATGCCTCACTCCTGCTTCGCTCAGGTGCTTTGGCCTTCCTCTTCACCGCTCCATATGCTCCCCCACCTCAGGAGGCTGCTACTGCTGCTGCTACAGCCTCCATTCCAAGCTTCTCAGCTGATGCCGCTAGAACCTTCGCTGCTGCTCATGGACTTGCCGTGAGGTCTGTTGGTGTTCGCGTGGCTGATGCTGCTGAGGCTTTCAGAGTTTCCGTTGCCGGCGGAGCTAGGCCAGCTTTCGCTCCTGCTGATTTGGGACATGGTTTCGGCCTGGCTGAGGTTGAGCTTTACGGTGACGTGGTTCTCCGCTTCGTGTCTTACCCAGATGAGACTGACCTGCCTTTCCTTCCCGGCTTCGAGAGAGTTTCCTCTCCTGGTGCCGTGGATTACGGCCTGACAAGGTTCGACCACGTGGTTGGAAACGTTCCCGAGATGGCTCCAGTGATCGATTACATGAAGGGCTTCCTTGGATTCCATGAGTTCGCCGAGTTCACTGCTGAGGACGTGGGAACCACTGAGTCCGGTTTGAACTCTGTGGTTCTCGCCAACAATTCTGAGGCTGTTTTGCTCCCTCTGAATGAGCCTGTGCATGGAACCAAGAGGAGAAGCCAGATTCAAACTTACCTGGAGTACCACGGTGGCCCTGGAGTTCAGCATATCGCCCTTGCTTCTAATGATGTGTTGCGCACACTCAGAGAGATGCGCGCCAGAACCCCCATGGGAGGTTTCGAGTTCATGGCCCCACCACAGGCTAAGTACTACGAGGGCGTTAGAAGGATTGCTGGAGACGTGTTGAGCGAGGAGCAGATCAAGGAGTGCCAAGAGCTGGGTGTTCTTGTGGATAGGGATGACCAGGGCGTTCTGCTTCAAATTTTCACTAAGCCAGTGGGCGACCGCCCTACATTCTGGCTTGAGATGATTCAAAGAATCGGCTGCATGGAGAAGGATGAGGTTGGACAGGAGTACCAAAAGGGCGGATGCGGTGGCTTCGGAAAGGGTAACTTCAGCGAGTTGTTCAAGTCAATCGAGGACTACGAGAAGAGCCTCGAGGTGAAGCAGTCAGTGGTTGCCCAAAAGTCCTGA
modifications: AsHPPDm-F383W-02 Nucleotide Sequence
notes: vector DBN11729
For B1, the Resistance evaluation [1, 3] was “Poorly resistant”, the Scores [1, 3] was 42 and the “Grade 0 (classification and statistics of the grade of pesticide damage; number of plants)” value [1, 4] was 4. For the same molecule, the “Grade 1 (classification and statistics of the grade of pesticide damage; number of plants)” value [1, 4] was 4, the “Grade 2 (classification and statistics of the grade of pesticide damage; number of plants)” value [1, 4] was 8 and the “Grade 3 (classification and statistics of the grade of pesticide damage; number of plants)” value [1, 4] was 0. The Resistance evaluation [1, 5] was “poorly resistant (poorly resistant plants (scores 34-67))”, the “tolerance to isoxaflutole (resistance class)” value ([1]; isoxaflutole at four-fold field concentration) was “poorly-resistant” and the “tolerance to isoxaflutole (resistance class)” value ([1]; isoxaflutole at two-fold field concentration) was “moderately-resistant”. For the same molecule, the “Classification and statistics of the grade of pesticide damage: Grade 0” value [1, 6] was 6, the “Classification and statistics of the grade of pesticide damage: Grade 1” value [1, 6] was 10 and the “Classification and statistics of the grade of pesticide damage: Grade 2” value [1, 6] was 0. For the same molecule, the “Classification and statistics of the grade of pesticide damage: Grade 3” value [1, 6] was 0, the “Classification and statistics of the grade of pesticide damage: Grade 0” value [1, 5] was 4 and the “Classification and statistics of the grade of pesticide damage: Grade 1” value [1, 5] was 4. The “Classification and statistics of the grade of pesticide damage: Grade 2” value [1, 5] was 8, the “Classification and statistics of the grade of pesticide damage: Grade 3” value [1, 5] was 0 and the Scores ([1]; pesticide damage score 0-100, isoxaflutole 140 g ai/ha (2×), 7 DAT, Table 2) was 21. The Scores ([1]; pesticide damage score 0-100, isoxaflutole 280 g ai/ha (4×), 7 DAT, Table 2) was 42, the “tolerance to mesotrione (in words)” value ([2]; in vivo) was “different degrees of tolerance” and the Resistance evaluation [2, 7] was “moderately”. The Resistance evaluation ([2]; mesotrione 420 g ai/ha (4×)) was “poorly resistant (poorly resistant plants (scores 34-67))”, the “tolerance to mesotrione (resistance class)” value ([2]; mesotrione at four-fold field concentration) was “poorly-resistant” and the “tolerance to mesotrione (resistance class)” value ([2]; mesotrione at two-fold field concentration) was “moderately-resistant”. For the same molecule, the “Classification and statistics of the grade of pesticide damage: Grade 0” value [2, 7] was 4, the “Classification and statistics of the grade of pesticide damage: Grade 1” value [2, 7] was 10 and the “Classification and statistics of the grade of pesticide damage: Grade 2” value [2, 7] was 1. For the same molecule, the “Classification and statistics of the grade of pesticide damage: Grade 3” value [2, 7] was 1, the “Classification and statistics of the grade of pesticide damage: Grade 0” value ([2]; mesotrione 420 g ai/ha (4×)) was 0 and the “Classification and statistics of the grade of pesticide damage: Grade 1” value ([2]; mesotrione 420 g ai/ha (4×)) was 2. The “Classification and statistics of the grade of pesticide damage: Grade 2” value ([2]; mesotrione 420 g ai/ha (4×)) was 14, the “Classification and statistics of the grade of pesticide damage: Grade 3” value ([2]; mesotrione 420 g ai/ha (4×)) was 0 and the Scores [2, 7] was 31. It also gave a Scores ([2]; mesotrione 420 g ai/ha (4×)) of 63.
